According to the Human Domainome abundance scans (Beltran et al. 2025):
± gives the uncertainty stated by the source.

B1: Gamma-crystallin C, residues 4 to 79; numbered along this chain, P07315 (parent)
chain: ITFYEDRAFQGRSYETTTDCPNLQPYFSRCNSIRVESGCWMLYERPNYQGQQYLLRRGEYPDYQQWMGLSDSIRSC

Variants of: B1
Experiment: abundance fitness (aPCA) (normalised: wild type 0, dead -1); higher = more abundant; growth selection in yeast, the domain comes from the species named
Details: Homo sapiens

Variant	abundance fitness
G38Y	-0.109 ± 0.18
G38L	-0.177 ± 0.091
G38C	-0.005 ± 0.14
G38E	-0.009 ± 0.2
G38W	-0.427 ± 0.29
G38R	-0.153 ± 0.055
G38T	-0.191 ± 0.11
G38S	0 ± 0.092
G38D	0.171 ± 0.11
G38A	-0.008 ± 0.074
G38I	-0.202 ± 0.15
G38K	-0.177 ± 0.17
G38P	-0.108 ± 0.14
G38H	-0.309 ± 0.27
G38M	-0.141 ± 0.34
I33V	-0.094 ± 0.097
I33C	0.074 ± 0.13
I33M	0.191 ± 0.14
I33K	-0.835 ± 0.25
I33W	-0.776 ± 0.34
I33T	-0.494 ± 0.15
I33Q	-0.792 ± 0.27
I33F	-0.057 ± 0.14
I33A	0.054 ± 0.084

Variant	abundance fitness
I33R	-0.883 ± 0.15
I33S	-0.642 ± 0.2
I33P	-0.756 ± 0.19
I33E	-0.676 ± 0.37
P21Q	0.016 ± 0.086
P21N	0.112 ± 0.18
P21R	-0.131 ± 0.052
P21L	-0.023 ± 0.059
P21T	0.006 ± 0.097
P21W	-0.05 ± 0.12
P21M	0.075 ± 0.099
P21E	-0.074 ± 0.13
P21A	-0.028 ± 0.11
P21S	-0.19 ± 0.083
P21K	0.016 ± 0.12
P21H	-0.164 ± 0.18
P21G	0.053 ± 0.055
P21C	-0.119 ± 0.1
P21F	-0.161 ± 0.24
F27N	-0.315 ± 0.17
F27M	0.064 ± 0.15
F27K	-0.658 ± 0.12
F27I	-0.144 ± 0.28
F27D	-1.02 ± 0.38

Variant	abundance fitness
F27G	-0.186 ± 0.063
F27A	0.124 ± 0.11
F27S	-0.109 ± 0.076
F27L	-0.09 ± 0.08
F27H	-0.096 ± 0.033
F27Y	-0.468 ± 0.23
F27P	-0.865 ± 0.22
F27R	-0.269 ± 0.08
F27E	-0.794 ± 0.25
F27C	-0.203 ± 0.17
F27T	0.079 ± 0.11
C39E	-0.045 ± 0.17
C39Y	-0.014 ± 0.092
C39N	-0.12 ± 0.26
C39S	0.062 ± 0.094
C39I	-0.014 ± 0.27
C39V	0.011 ± 0.072
C39M	-0.027 ± 0.27
C39R	-0.071 ± 0.07
C39P	0.092 ± 0.13
C39L	-0.074 ± 0.092
C39T	-0.012 ± 0.1
C39Q	-0.088 ± 0.12
C39F	-0.036 ± 0.11

Variant	abundance fitness
C39W	0.031 ± 0.08
C39D	-0.133 ± 0.12
C39A	-0.051 ± 0.12
C39G	0.08 ± 0.071
N31G	-0.069 ± 0.28
N31V	-0.052 ± 0.35
N31L	-0.294 ± 0.32
N31T	-0.056 ± 0.4
N31A	-0.576 ± 0.42
N31R	-0.013 ± 0.24
N31S	-0.019 ± 0.24
N22D	-0.004 ± 0.13
N22F	0.17 ± 0.13
N22A	-0.041 ± 0.088
N22T	0.097 ± 0.11
N22H	-0.176 ± 0.16
N22E	-0.1 ± 0.13
N22Q	-0.046 ± 0.12
N22K	0.064 ± 0.072
N22Y	0.079 ± 0.14
N22C	-0.123 ± 0.31
N22V	0.026 ± 0.06
N22W	-0.19 ± 0.094
N22G	-0.158 ± 0.085

Variant	abundance fitness
N22R	0.016 ± 0.065
N22S	0.012 ± 0.08
N22L	0.036 ± 0.076
T18W	0.017 ± 0.091
M41D	-0.133 ± 0.22
M41A	-0.07 ± 0.12
M41K	-0.056 ± 0.14
M41P	-0.981 ± 0.32
M41Y	0.032 ± 0.1
M41V	-0.115 ± 0.087
M41W	0.039 ± 0.1
M41H	-0.186 ± 0.18
M41R	-0.018 ± 0.069
M41L	-0.056 ± 0.08
M41E	0.059 ± 0.12
M41N	-0.132 ± 0.42
M41C	-0.041 ± 0.11
M41F	0.104 ± 0.2
M41Q	0.046 ± 0.11
M41S	0.068 ± 0.1
C20P	-0.64 ± 0.13
C20Q	-0.027 ± 0.16
C20S	0.104 ± 0.11
C20W	-0.103 ± 0.046

Variant	abundance fitness
C20A	0.124 ± 0.089
C20D	0.169 ± 0.052
C20L	-0.042 ± 0.057
C20Y	-0.079 ± 0.11
C20V	-0.133 ± 0.076
C20M	0.068 ± 0.12
C20F	-0.211 ± 0.23
C20E	-0.041 ± 0.11
C20G	-0.058 ± 0.07
C20K	-0.243 ± 0.32
C20N	0.22 ± 0.26
C20T	0.019 ± 0.1
E36R	-0.069 ± 0.075
E36I	-0.201 ± 0.23
E36W	0.003 ± 0.11
E36D	0.021 ± 0.13
E36L	-0.078 ± 0.12
E36F	-0.131 ± 0.21
E36V	0.008 ± 0.08
E36N	-0.004 ± 0.16
E36M	0.019 ± 0.14
E36T	0.11 ± 0.27
E36A	0.048 ± 0.19
E36G	-0.031 ± 0.056

Variant	abundance fitness
E36Q	-0.081 ± 0.1
E36S	-0.032 ± 0.11
E36P	0.018 ± 0.16
E36K	-0.074 ± 0.48
V35S	-0.589 ± 0.15
V35G	-1.01 ± 0.16
V35Y	-0.827 ± 0.36
V35M	-0.84 ± 0.19
V35A	-0.422 ± 0.11
V35L	-0.038 ± 0.085
V35I	-0.916 ± 0.41
V35W	-1.08 ± 0.44
V35R	-0.893 ± 0.42
V35C	-0.291 ± 0.15
V35E	-1.11 ± 0.27
V35P	-1.03 ± 0.34
V35Q	-0.854 ± 0.28
V35T	-0.081 ± 0.11
S37T	0.028 ± 0.14
S37A	-0.255 ± 0.14
S37H	-0.142 ± 0.25
S37C	-0.091 ± 0.14
S37I	0.072 ± 0.27
S37G	-0.061 ± 0.062

Variant	abundance fitness
S37V	0.066 ± 0.13
S37E	-0.12 ± 0.097
S37R	-0.004 ± 0.078
S37Q	-0.124 ± 0.11
S37L	-0.301 ± 0.13
S37W	-0.113 ± 0.13
S37M	-0.031 ± 0.12
P25A	-0.002 ± 0.065
P25L	0.021 ± 0.098
P25D	0.323 ± 0.22
P25C	0.227 ± 0.19
P25F	-0.076 ± 0.13
P25K	0.008 ± 0.11
P25M	0.005 ± 0.11
P25Q	-0.05 ± 0.13
P25I	-0.174 ± 0.17
P25Y	-0.257 ± 0.26
P25G	0.032 ± 0.073
P25T	0.199 ± 0.11
P25V	0.054 ± 0.087
P25N	0.048 ± 0.2
P25E	0.086 ± 0.12
P25S	0.047 ± 0.066
P25H	-0.241 ± 0.37

Variant	abundance fitness
R34L	-0.077 ± 0.076
R34T	0.047 ± 0.28
R34D	-0.382 ± 0.27
R34S	-0.143 ± 0.096
R34M	-0.153 ± 0.1
R34Q	-0.041 ± 0.17
R34A	0.026 ± 0.099
R34H	-0.163 ± 0.32
R34W	-0.045 ± 0.16
R34G	-0.593 ± 0.078
R34C	-0.107 ± 0.11
R34Y	-0.098 ± 0.2
R34V	-0.039 ± 0.11
R34P	-0.827 ± 0.25
R34F	-0.113 ± 0.21
R34E	-0.373 ± 0.12
R29D	-0.239 ± 0.16
R29A	0.085 ± 0.091
R29M	0.096 ± 0.096
R29Q	-0.117 ± 0.14
R29T	0.101 ± 0.14
R29E	-0.021 ± 0.096
R29Y	0.024 ± 0.16
R29W	-0.053 ± 0.1

Variant	abundance fitness
R29V	-0.009 ± 0.079
R29F	0.103 ± 0.14
R29S	0.059 ± 0.1
S28P	-0.115 ± 0.12
S28L	-0.082 ± 0.1
S28G	0.042 ± 0.12
S28H	-0.014 ± 0.11
S28R	-0.045 ± 0.072
S28E	0.093 ± 0.098
S28F	0.044 ± 0.1
S28W	-0.15 ± 0.11
S28D	0.166 ± 0.47
S28C	-0.117 ± 0.17
S28Q	-0.057 ± 0.17
S28N	0.058 ± 0.15
S28Y	-0.012 ± 0.22
S28I	-0.017 ± 0.089
S28A	-0.038 ± 0.1
S28V	-0.03 ± 0.084
S28K	0.317 ± 0.13
Q24R	0.007 ± 0.075
Q24L	0.116 ± 0.12
Q24V	0.006 ± 0.071
Q24Y	0.011 ± 0.24

Variant	abundance fitness
Q24D	0.13 ± 0.47
Q24S	0 ± 0.11
Q24G	0.027 ± 0.074
Q24C	-0.131 ± 0.21
Q24F	-0.14 ± 0.19
Q24A	-0.109 ± 0.082
Q24K	-0.048 ± 0.12
Q24W	0.034 ± 0.075
Q24I	-0.056 ± 0.21
Q24P	-0.308 ± 0.21
Q24E	0.125 ± 0.19
W40A	0.036 ± 0.084
W40R	-0.969 ± 0.13
W40C	0.03 ± 0.2
W40G	-0.435 ± 0.063
W40L	-0.243 ± 0.052
W40D	-0.849 ± 0.28
W40V	0.088 ± 0.11
W40M	-0.496 ± 0.15
W40Y	-0.16 ± 0.28
W40I	0.01 ± 0.3
W40S	-0.451 ± 0.13
W40E	-0.978 ± 0.2
W40T	-0.43 ± 0.17

Variant	abundance fitness
W40P	-0.939 ± 0.27
L23G	-0.727 ± 0.12
L23R	-1.01 ± 0.23
L23S	-0.39 ± 0.12
L23A	-0.173 ± 0.082
L23W	-0.771 ± 0.26
L23N	-0.676 ± 0.26
L23I	-0.059 ± 0.31
L23V	0.005 ± 0.064
L23T	-0.081 ± 0.12
L23E	-0.617 ± 0.16
L23M	0.027 ± 0.18
L23Q	-0.959 ± 0.34
C30Q	-0.713 ± 0.14
C30T	-0.176 ± 0.12
C30P	-0.079 ± 0.2
C30I	-0.1 ± 0.14
C30G	-0.582 ± 0.098
C30Y	-0.472 ± 0.34
C30W	-0.58 ± 0.13
C30E	-0.95 ± 0.29
C30R	-0.768 ± 0.14
C30S	0.03 ± 0.071
C30F	-0.176 ± 0.12

Variant	abundance fitness
C30L	-0.299 ± 0.074
D19V	-0.101 ± 0.089
D19R	-0.027 ± 0.075
D19H	-0.074 ± 0.17
D19I	-0.011 ± 0.18
D19A	-0.086 ± 0.09
D19Q	-0.032 ± 0.12
D19L	0.042 ± 0.1
D19P	-0.35 ± 0.16
D19M	-0.037 ± 0.091
D19G	-0.101 ± 0.067
D19T	-0.135 ± 0.12
D19C	-0.052 ± 0.15
D19E	-0.063 ± 0.095
D19W	0.059 ± 0.12
D19Y	-0.187 ± 0.24
S32R	-1.07 ± 0.31
S32H	-0.642 ± 0.21
S32I	-0.805 ± 0.43
S32D	-0.812 ± 0.36
S32F	-1.09 ± 0.38
S32P	-0.857 ± 0.23
S32Q	-0.916 ± 0.4
S32W	-0.889 ± 0.26

Variant	abundance fitness
S32L	-0.985 ± 0.2
S32A	-0.101 ± 0.087
S32K	-0.953 ± 0.17
S32G	-0.424 ± 0.083
Y26D	-0.179 ± 0.23
Y26R	-0.031 ± 0.072
Y26W	-0.092 ± 0.1
Y26G	0.044 ± 0.084
Y26K	-0.047 ± 0.13
Y26Q	-0.077 ± 0.19
Y26V	0.046 ± 0.088
Y26A	0.064 ± 0.053
Y26N	0.052 ± 0.38
Y26M	0.078 ± 0.084
Y26L	0.037 ± 0.067
Y26S	0.045 ± 0.097
Y26E	-0.138 ± 0.11
Y26T	-0.186 ± 0.097
Y26F	0.033 ± 0.12
Y26P	-0.046 ± 0.16
Y26H	-0.082 ± 0.22
Y26I	0.237 ± 0.19
